For 44 molecules, Kd and koff results are on record in US20100135997A1 (MEDGENE, published 2010).

Numbering of substitutions follows the chain as printed.

B1: SEQ ID NO 16 (receptor)
chain: MAQHLPKPTLWAEPGSVITMDQPVTLRCQGGQETQEYRLYREKKTAPWITRIPQELVKKGQFPIPSITWEHAGRYRCYYGSDTSQWSASSDPLELVVTGVYIKPTLSAQPSPVVNSGGNVTLQCDSQVTFDGFILCKEGEDEHPQCLNSQPHARGSSRAIFSVGPVSPSRRWWYRCYAYDSNSPYEWSLPSDLLELDVDG
notes: mutated soluble two domain ILT-2
B2: SEQ ID NO 51 (receptor)
chain: B1 chain with Q3G, T129A, D180P, S181I, N182W, S183T, P190G
notes: as for B1
B3: SEQ ID NO 30 (receptor)
chain: B1 chain with Q3G, M20Q, D21G, Q22S, T129A, D180P, S181I, N182W, S183T
notes: as for B1
B4: SEQ ID NO 45 (receptor)
chain: B1 chain with Q3G, T129A, D180M
notes: as for B1
B5: SEQ ID NO 48 (receptor)
chain: B1 chain with Q3G, T129A, N182W, S183A
notes: as for B1
B6: SEQ ID NO 36 (receptor)
chain: B1 chain with Q3G, M20Q, D21G, Q22S, T129A, D180P, S181A, N182W, S183T
notes: as for B1
B7: SEQ ID NO 22 (receptor)
chain: B1 chain with Q3G, T129A, D180G, S181R, N182W, S183L
notes: as for B1
B8: SEQ ID NO 18 (receptor)
chain: B1 chain with Q3G, T129A, D180M, N182W, S183A
notes: as for B1
B9: SEQ ID NO 55 (receptor)
chain: B1 chain with Q3G, T129A, D180P, S181I, N182W, S183T, L189S, P190G
notes: as for B1
B10: SEQ ID NO 57 (receptor)
chain: B1 chain with Q3G, T129A, S188T, L189R, P190G
notes: as for B1
B11: SEQ ID NO 47 (receptor)
chain: B1 chain with Q3G, T129A, D180M, S183A
notes: as for B1
B12: SEQ ID NO 32 (receptor)
chain: B1 chain with Q3G, M20Q, D21G, Q22S, T129A, D180V, S181A, N182W, S183A
notes: as for B1
B13: SEQ ID NO 46 (receptor)
chain: B1 chain with Q3G, T129A, N182W
notes: as for B1
B14: SEQ ID NO 58 (receptor)
chain: B1 chain with Q3G, T129A, L189Q, P190M
notes: as for B1
B15: SEQ ID NO 54 (receptor)
chain: B1 chain with Q3G, T129A, D180P, S181I, N182W, S183T, L189T, P190S
notes: as for B1
B16: SEQ ID NO 56 (receptor)
chain: B1 chain with Q3G, T129A, D180P, S181I, N182W, S183T, S188T, P190G
notes: as for B1
B17: SEQ ID NO 40 (receptor)
chain: B1 chain with Q3G, M20Q, D21G, Q22S, T129A, D180M, N182W
notes: as for B1
B18: SEQ ID NO 53 (receptor)
chain: B1 chain with Q3G, T129A, D180P, S181I, N182W, S183T, S188T, L189R, P190G
notes: as for B1
B19: SEQ ID NO 38 (receptor)
chain: B1 chain with Q3G, M20Q, D21G, Q22S, T129A, D180M, N182W, S183A
notes: as for B1
B20: SEQ ID NO 20 (receptor)
chain: B1 chain with Q3G, T129A, D180P, S181D, N182F, S183T
notes: as for B1
B21: SEQ ID NO 52 (receptor)
chain: B1 chain with Q3G, T129A, D180P, S181I, N182W, S183T, L189Q, P190M
notes: as for B1
B22: SEQ ID NO 43 (receptor)
chain: B1 chain with Q3G, T129A, D180M, N182Y
notes: as for B1
B23: SEQ ID NO 23 (receptor)
chain: B1 chain with Q3G, T129A, D180V, S181E, N182W, S183L
notes: as for B1
B24: SEQ ID NO 44 (receptor)
chain: B1 chain with Q3G, T129A, D180P, S181A, N182Y, S183T
notes: as for B1
B25: SEQ ID NO 34 (receptor)
chain: B1 chain with Q3G, M20Q, D21G, Q22S, T129A, D180M, S181N, N182W, S183A
notes: as for B1
B26: SEQ ID NO 17 (receptor)
chain: B1 chain with T129A, F130Y
notes: as for B1
B27: SEQ ID NO 21 (receptor)
chain: B1 chain with Q3G, T129A, D180P, S181W, N182F, S183T
notes: as for B1
B28: SEQ ID NO 59 (receptor)
chain: B1 chain with Q3G, T129A, L189S, P190G
notes: as for B1
B29: SEQ ID NO 135 (receptor)
chain: MGHLPKPTLWAEPGSVITMDQPVTLRCQGGQETQEYRLYREKKTAPWITRIPQELVKKGQFPIPSITWEHAGRYRCYYGSDTSQWSASSDPLELVVTGVYIKPTLSAQPSPVVNSGGNVTLQCDSPFIADGFILCKEGEDEHPQCLNSQPHARGSSRAIFSVGPVSPSRRWWYRCYAYMSWSPYEWSLPSDLLELDVDG
notes: as for B1
B30: SEQ ID NO 123 (receptor)
chain: B29 chain with E35Q, S83R, P126Q, F127V, I128A, A129F, E141D, W172R, M179D, W181N
notes: mutated soluble two domain ILT-2; also called Clone 64; c64
B31: SEQ ID NO 130 (receptor)
chain: B29 chain with F127W, I128L
notes: as for B1
B32: SEQ ID NO 37 (receptor)
chain: MGHLPKPTLWAEPGSVITMDQPVTLRCQGGQETQEYRLYREKKTAPWITRIPQELVKKGQFPIPSITWEHAGRYRCYYGSDTAGRSESSDPLELVVTGVYIKPTLSAQPSPVVNSGGNVTLQCDSQVAFDGFILCKEGEDEHPQCLNSQPHARGSSRAIFSVGPVSPSRRWWYRCYAYPAWTPYEWSLPSDLLELDVDG
notes: as for B1
B33: SEQ ID NO 33 (receptor)
chain: B32 chain with P179V, T182A
notes: as for B1
B34: SEQ ID NO 133 (receptor)
chain: B29 chain with I128L, A129S, R170K
notes: as for B1
B35: SEQ ID NO 132 (receptor)
chain: B29 chain with D130E
notes: as for B1
B36: SEQ ID NO 35 (receptor)
chain: B32 chain with P179M, A180N, T182A
notes: as for B1
B37: SEQ ID NO 39 (receptor)
chain: B32 chain with P179M, A180S, T182A
notes: as for B1
B38: SEQ ID NO 134 (receptor)
chain: B29 chain with I128V, A129S
notes: as for B1
B39: SEQ ID NO 129 (receptor)
chain: B29 chain with I128L, A129T
notes: as for B1
B40: SEQ ID NO 128 (receptor)
chain: B29 chain with F127W, I128V
notes: as for B1
B41: SEQ ID NO 31 (receptor)
chain: B32 chain with A180I
notes: as for B1
B42: SEQ ID NO 131 (receptor)
chain: B29 chain with I128Q
notes: mutated soluble two domain ILT-2; also called c132
B43: SEQ ID NO 41 (receptor)
chain: B32 chain with P179M, A180S, T182S
notes: as for B1
B44: SEQ ID NO 136 (receptor)
chain: B29 chain with P126M, I128L, A129V
notes: as for B1

The test has as its target T1, HLA-A*0201 loaded with the Carcinoembryonic antigen (CEA)-derived … peptide (biotin on the C-terminal biotinylation tag).
T1 construct: Soluble, biotinylated, immobilised on a streptavidin chip
The test can be described thus: Biacore SPR. The method in brief:
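pMHC complexes were immobilised in SPR flow cells through biotin-tag binding. Soluble ILT-like molecule was passed over the surfaces at constant flow rate and response recorded in RU for affinity and kinetic analysis.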
(In SPR one partner is held on a chip, and binding of the other changes the refractive index at the surface.)
As a reminder, the Kd is the concentration at which binding is half-saturated. One may read the koff as a measure of how fast the partners let go of each other. As to B1, the Kd was at most 1000 nM and the koff was at most 2 s⁻¹.

Molecule B2 came in with a Kd of at most 1000 nM and a koff of at most 2 s⁻¹.

In turn, B3 gave a Kd of at most 1000 nM and a koff of at most 2 s⁻¹.

In turn, B4 displayed a Kd of at most 1000 nM and a koff of at most 2 s⁻¹.

B5 showed a Kd of at most 1000 nM and a koff of at most 2 s⁻¹.

The molecule B6 yielded a Kd of at most 1000 nM and a koff of at most 2 s⁻¹.

Molecule B7 showed a Kd of at most 1000 nM and a koff of at most 2 s⁻¹.

Turning to B8, the Kd was at most 1000 nM and the koff is at most 2 s⁻¹.

For the molecule B9, the Kd was at most 1000 nM and the koff was at most 2 s⁻¹.

With B10, the Kd was at most 1000 nM and the koff is at most 2 s⁻¹.

Consider B11, for which the Kd is at most 1000 nM and the koff was at most 2 s⁻¹.

In turn, B12 registered a Kd of at most 1000 nM and a koff of at most 2 s⁻¹.

Molecule B13 came in with a Kd of at most 1000 nM and a koff of at most 2 s⁻¹.

As to B14, the Kd is at most 1000 nM and the koff was at most 2 s⁻¹.

For B15, the Kd was at most 1000 nM and the koff is at most 2 s⁻¹.

B16 yielded a Kd of at most 1000 nM and a koff of at most 2 s⁻¹.

Turning to B17, the Kd is at most 1000 nM and the off-rate (koff) was at most 2 s⁻¹.

On to B18, for which the Kd is at most 1000 nM and the koff is at most 2 s⁻¹.

With B19, the Kd was at most 1000 nM and the koff was at most 2 s⁻¹.

Consider B20, for which the Kd is at most 1000 nM and the koff is at most 2 s⁻¹.

On to B21, for which the Kd was at most 1000 nM and the koff was at most 2 s⁻¹.

Turning to B22, the Kd was at most 1000 nM and the koff is at most 2 s⁻¹.

B23 displayed a Kd of at most 1000 nM and a koff of at most 2 s⁻¹.

B24: the Kd is at most 1000 nM and the koff is at most 2 s⁻¹.

B25: the Kd is at most 1000 nM and the koff was at most 2 s⁻¹.

As for B26, the Kd is at most 1000 nM and the koff was at most 2 s⁻¹.

As to B27, the Kd was at most 1000 nM and the koff was at most 2 s⁻¹.

B28 registered a Kd of at most 1000 nM and a koff of at most 2 s⁻¹.

The molecule B29 yielded a Kd of at most 1000 nM and a koff of at most 2 s⁻¹.

For the molecule B30, the Kd is at most 1000 nM and the koff was at most 2 s⁻¹.

B31 registered a Kd of at most 1000 nM and a koff of at most 2 s⁻¹.

In turn, B32 returned a Kd of at most 1000 nM and a koff of at most 2 s⁻¹.

B33 returned a dissociation constant (Kd) of at most 1000 nM and a koff of at most 2 s⁻¹.

In turn, B34 came in with a Kd of at most 1000 nM and a koff of at most 2 s⁻¹.

Take B35: the Kd is at most 1000 nM and the koff was at most 2 s⁻¹.

With B36, the Kd was at most 1000 nM and the koff is at most 2 s⁻¹.

B37 displayed a Kd of at most 1000 nM and a koff of at most 2 s⁻¹.

The molecule B38 displayed a Kd of at most 1000 nM and a koff of at most 2 s⁻¹.

As for B39, the Kd is at most 1000 nM and the koff is at most 2 s⁻¹.

As to B40, the Kd was at most 1000 nM and the koff was at most 2 s⁻¹.

Molecule B41 came in with a Kd of at most 1000 nM and a koff of at most 2 s⁻¹.

With B42, the Kd was at most 1000 nM and the koff was at most 2 s⁻¹.

B43 returned a Kd of at most 1000 nM and a koff of at most 2 s⁻¹.

Take B44: the Kd is at most 1000 nM and the koff was at most 2 s⁻¹.
